This is an account of results in US20230322924A1 (Janssen / Centocor, published 2023).

Changes are numbered by the printed parent chain.

B1: C3CB11 (bispecific antibody, IgG4, V domains shown)
VH 1: QVQLVESGGGVVQPGRSLRLSCVASGFTFSSYGMHWVRQAPGKGLEWVAVISYDGSNKYYADSVKGRFTISRDNSKNTLYLQMNSLRAEGTAVYYCAKDFRSFDWLPPDSASYHGMDVWGQGTTVTVSS
VL 1: SYELTQPPSVSVSPGQTASITCSGDKLGDKYACWYQQKPGQSPVLVIYQDGKRPSGIPERFSGSNFGNKATLTISGTQAMDEADYYCQAWDRNTVVFGGGTKLTVL
VH 2: EVQLVESGGGLVQPGGSLRLSCAASGFTFNTYAMNWVRQAPGKGLEWVARIRSKYNNYATYYAASVKGRFTISRDDSKNSLYLQMNSLKTEDTAVYYCARHGNFGNSYVSWFAYWGQGTLVTVSS
VL 2: QTVVTQEPSLTVSPGGTVTLTCRSSTGAVTTSNYANWVQQKPGQAPRGLIGGTNKRAPGTPARFSGSLLGGKAALTLSGVQPEDEAEYYCALWYSNLWVFGGGTKLTVL
B2: C3CB7 (bispecific antibody, IgG4, V domains shown)
VH 1: QVQLVQSGSELRKPGASVKVSCKASGYTFTNYAMNWVRQAPGQGLEWMGWINTNTGNPTYAQGFTGRFVFSLDTSVSSAYLQISSLKAEDTAMYYCATDRDRGTDYWGQGTLVTVSS
VL 1: QSALTQPASVSGSPGQSITISCTGTSSDVGDYNYVSWYQQHPGKVPKLMIYDVSNRPSGVSNRFSGSMSGNTASLTISGLQAEDEADYYCSSYSSSSALEVFGGGTKLTVL
VH 2: B1 VH 2
VL 2: B1 VL 2
B3: C3CB12 (bispecific antibody, IgG4, V domains shown)
VH 1: not shown
VL 1: B1 VL 1 with D25N, D29A, Y31F, C33S, G51N, F66S, K69T, M80V, R92S, N93S
VH 2: B1 VH 2
VL 2: B1 VL 2
B4: PSMB51 (Fab, V domains shown)
VH: QVQLVQSGAEVKKPGSSVKVSCKASGGTFSSYAISWVRQAPGQGLEWMGWIIPYNGNANYAQKFQGRVTITADESTSTAYMELSSLRSEDTAVYYCARVNSAALVWERLDYWGQGTLVTVSS
VL: DIQMTQSPSSLSASVGDRVTITCRASQSIDRWLNWYQQKPGKAPKLLIYAASSLQSGVPSRFSGSGSGTDFTLTISSLQPEDFATYYCQQSPRYPLTFGQGTKVEIK
notes: mammalian-expressed Fab supernatant (huG1 Fab and human kappa vectors); also called PSMM52
B5: PSMB109 (Fab, V domains shown)
VH: B4 VH with I52S
VL: B4 VL
notes: mammalian-expressed Fab supernatant (huG1 Fab and human kappa vectors); also called PSMM110
B6: PSMB58 (Fab, V domains shown)
VH: EVQLVQSGAEVKKPGESLKISCKGSGYSFTSYWISWVRQMPGKGLEWMGIIYPGDSYTRYSPSFQGQVTISADKSISTAYLQWSSLKASDTAMYYCARDYEWELFDSRLDYWGQGTLVTVSS
VL: not shown
notes: mammalian-expressed Fab supernatant (huG1 Fab and human kappa vectors); also called PSMM59
B7: PSMB56 (Fab, V domains shown)
VH: QVQLVQSGAEVKKPGSSVKVSCKASGGTFSSYAISWVRQAPGQGLEWMGWISPYNGNANYAQKFQGRVTITADESTSTAYMELSSLRSEDTAVYYCARDSDRSYNLDYWGQGTLVTVSS
VL: not shown
notes: mammalian-expressed Fab supernatant (huG1 Fab and human kappa vectors); also called PSMM57
B8: PSMB86 (Fab, V domains shown)
VH: QVQLVQSGAEVKKPGSSVKVSCKASGGTFKSYDISWVRQAPGQGLEWMGGIIPIEGTANYAQKFQGRVTITADESTSTAYMELSSLRSEDTAVYYCARDYPAGYGFDYWGQGTLVTVSS
VL: not shown
notes: mammalian-expressed Fab supernatant (huG1 Fab and human kappa vectors); also called PSMM87
B9: PSMB84 (Fab, V domains shown)
VH: EVQLLESGGGLVQPGGSLRLSCAASGFTFDSDWMSWVRQAPGKGLEWVSAISGNGGSTEYADSVKGRFTISRDNSKNTLYLQMNSLRAEDTAVYYCARDPYYYYDGDSYYGMDVWGQGTLVTVSS
VL: not shown
notes: mammalian-expressed Fab supernatant (huG1 Fab and human kappa vectors); also called PSMM85
B10: PSMB80 (Fab, V domains shown)
VH: QVQLVQSGAEVKKPGSSVKVSCKASGGTFDDYAISWVRQAPGQGLEWMGRIDPIEGTANYAQKFQGRVTITADESTSTAYMELSSLRSEDTAVYYCARDRYYYDGVYWYSDYFDYWGQGTLVTVS
VL: not shown
notes: mammalian-expressed Fab supernatant (huG1 Fab and human kappa vectors); also called PSMM81
B11: PSMB49 (Fab, V domains shown)
VH: QVQLVQSGAEVKKPGSSVKVSCKASGGTFSSYAISWVRQAPGQGLEWMGGIIPIFGTANYAQKFQGRVTITADESTSTAYMELSSLRSEDTAVYYCARASRVWHASYGYLDYWGQGTLVTVSS
VL: EIVLTQSPATLSLSPGERATLSCRASQSVSKWLAWYQQKPGQAPRLLIYDASNRATGIPARFSGSGSGTDFTLTISSLEPEDFAVYYCQQRFTAPWTFGQGTKVEIK
notes: mammalian-expressed Fab supernatant (huG1 Fab and human kappa vectors); also called PSMM50
B12: PSMB55 (Fab, V domains shown)
VH: EVQLVQSGAEVKKPGESLKISCKGSGYSFTSYWIGWVRQMPGKGLEWMGIIYPGDSDTRYSPSFQGQVTISADKSISTAYLQWSSLKASDTAMYYCARGLPIWYLDYWGQGTLVTVSS
VL: B11 VL with S30A, K31S, W32D, D50F, R91S, F92I, A94W, W96F
notes: mammalian-expressed Fab supernatant (huG1 Fab and human kappa vectors); also called PSMM56

In one assay the target is Human CD33 full length (human, UniProt P20138 18-364). Description: cell-based or functional assay.
Chain of Human CD33 full length (P20138 18-364 limits assumed): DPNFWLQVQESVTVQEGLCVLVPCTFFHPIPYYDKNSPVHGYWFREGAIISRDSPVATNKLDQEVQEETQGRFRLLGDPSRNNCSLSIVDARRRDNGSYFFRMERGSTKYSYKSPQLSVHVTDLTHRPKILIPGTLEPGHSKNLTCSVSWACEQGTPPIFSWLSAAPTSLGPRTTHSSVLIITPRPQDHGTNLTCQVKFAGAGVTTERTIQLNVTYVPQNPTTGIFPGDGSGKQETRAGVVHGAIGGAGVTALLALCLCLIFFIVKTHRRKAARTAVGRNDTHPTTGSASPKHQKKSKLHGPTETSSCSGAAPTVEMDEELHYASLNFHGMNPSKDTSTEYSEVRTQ
In the case of B1, the “Primary AML Cell Killing EC50” value is 3.96 nM.
Same read-out and setting: next, B2: 0.332 nM; B3: 2.63 nM.

The target of the next assay is T1, human PSMA on LNCaP cells (human, UniProt Q04609 1-750).
T1 construct: PSMA of the LNCaP prostate cancer cell line itself
T1 sequence (Q04609 whole entry): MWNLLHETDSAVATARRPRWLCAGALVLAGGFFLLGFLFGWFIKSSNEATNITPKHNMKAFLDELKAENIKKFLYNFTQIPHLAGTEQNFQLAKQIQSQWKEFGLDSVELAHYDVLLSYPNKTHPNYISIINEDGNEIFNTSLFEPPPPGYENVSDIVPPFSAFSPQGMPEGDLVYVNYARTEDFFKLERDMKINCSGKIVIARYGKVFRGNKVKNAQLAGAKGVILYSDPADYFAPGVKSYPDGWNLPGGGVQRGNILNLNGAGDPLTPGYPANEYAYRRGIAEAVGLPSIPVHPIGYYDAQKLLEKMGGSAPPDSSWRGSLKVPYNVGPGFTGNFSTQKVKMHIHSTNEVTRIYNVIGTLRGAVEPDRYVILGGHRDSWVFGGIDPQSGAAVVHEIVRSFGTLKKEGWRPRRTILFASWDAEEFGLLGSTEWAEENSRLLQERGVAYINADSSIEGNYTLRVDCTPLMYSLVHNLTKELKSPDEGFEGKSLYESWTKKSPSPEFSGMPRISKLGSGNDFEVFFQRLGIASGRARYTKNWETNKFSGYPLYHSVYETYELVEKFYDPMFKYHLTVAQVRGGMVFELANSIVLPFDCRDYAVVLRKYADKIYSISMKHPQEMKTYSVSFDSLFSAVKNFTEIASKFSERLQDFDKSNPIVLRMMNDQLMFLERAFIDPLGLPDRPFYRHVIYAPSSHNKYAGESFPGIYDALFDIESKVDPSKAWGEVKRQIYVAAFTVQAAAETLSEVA
Description: flow cytometry, Fab supernatant, LNCaP cells. The protocol:
(§1) A cell-based binding assay was designed to assess the binding capabilities of individual Fab-his fusions from E. coli supernatants to PSMA-expressing cells. Individual Fab clones were isolated from the round 3 output of all panning experiments following pIX excision. Fab clones were tested for binding to chimp and cyno PSMA expressing HEK cells, as well as to human PSMA on LNCaP cells. Briefly, PSMA expressing cells were aliquoted into a V-bottom plate (CoStar 3357) at a density of 200,000 per well and incubated with (100 μl) supernatants expressing Fab fragments for 1 hour on ice. Cells were washed twice with PBS containing 2% FBS, and stained with a mouse anti-human kappa-RPE antibody (Life Technologies cat #MH10514) for 1 hour on ice. Cells were washed twice with PBS containing 2% FBS and resuspended in […] of the same wash buffer. Plates were read on a BD FACS Array flow cytometer. FACS data was analyzed in FlowJo software by live gating the healthy population of cells using forward scatter and side scatter, and then analyzing the cells within this gate for PE staining. Mean fluorescence intensity (MFI) was calculated and exported into Microsoft Excel. […] Fabs were sequenced and moved forward for cloning into mammalian expression vector for rescreening. True positives were selected from the binding of mammalian cell expressed Fab supernatants to PSMA-expressing cell lines.
(§2) Confirmation of mammalian expressed Fab supernatants was performed using the whole cell binding assay described previously. Binding of Fabs to human PSMA (LNCaP), chimpanzee, and cynomolgous monkey cells was tested, as well as counter screening for no binding to the parental HEK cell line.
With B4, the Geo-MFI was 41.5.
On the same count and under the same terms, next, B5: 34.9; B6: 25.3.
Still for that read-out and setting: next, B7: 24.5; B8: 31.7.
The same measure, in the same setting: next, B9: 192; B10: 20.9.
In turn, B11 had a Geo-MFI of 3.22.
On the same count and under the same terms, the result for B12 reads 17.2.

Another assay addresses T2, Cynomolgous monkey PSMA, full length, on HEK293F cells (Macaca fascicularis (cynomolgus monkey)).
T2 construct: stably transfected HEK293F cells; also called cyno PSMA; Cyno-PSMA HEK
T2 chain: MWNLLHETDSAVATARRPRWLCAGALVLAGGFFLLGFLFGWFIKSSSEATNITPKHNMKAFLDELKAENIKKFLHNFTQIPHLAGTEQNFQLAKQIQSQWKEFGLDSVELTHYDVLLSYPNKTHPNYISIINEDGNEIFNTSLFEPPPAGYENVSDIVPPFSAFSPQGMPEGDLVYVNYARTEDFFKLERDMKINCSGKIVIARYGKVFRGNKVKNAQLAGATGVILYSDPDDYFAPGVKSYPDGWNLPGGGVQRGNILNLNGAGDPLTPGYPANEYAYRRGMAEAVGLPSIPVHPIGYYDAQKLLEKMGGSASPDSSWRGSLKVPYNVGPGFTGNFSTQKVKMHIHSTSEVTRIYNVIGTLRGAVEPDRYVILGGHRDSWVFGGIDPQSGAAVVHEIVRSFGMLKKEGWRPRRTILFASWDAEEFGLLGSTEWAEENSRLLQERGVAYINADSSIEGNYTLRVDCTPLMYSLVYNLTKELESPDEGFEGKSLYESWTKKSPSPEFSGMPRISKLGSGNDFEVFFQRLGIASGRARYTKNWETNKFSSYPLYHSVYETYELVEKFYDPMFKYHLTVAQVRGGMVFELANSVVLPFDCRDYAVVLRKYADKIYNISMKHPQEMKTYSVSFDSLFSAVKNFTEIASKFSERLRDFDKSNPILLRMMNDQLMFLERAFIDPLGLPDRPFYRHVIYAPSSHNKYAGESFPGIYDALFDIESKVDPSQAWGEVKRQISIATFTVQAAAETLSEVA
The assay is described as follows: flow cytometry, Fab supernatant, cyno PSMA HEK cells. The protocol: as §1, with “Individual” for “A cell-based binding assay was designed to assess the binding capabilities of individual Fab-his fusions from E. coli supernatants to PSMA-expressing cells. Individual”
as §2
Take B4: the Geo-MFI worked out at 285.
Same read-out and setting: the result for B5 reads 321; that for B6, 121.
Turning to B7, the Geo-MFI is 95.6.
Same read-out and setting: next, B8: 224.
Same read-out and setting: the result for B9 reads 750; that for B10, 19.6; that for B11, 51.6.
The same measure, in the same setting: next, B12: 226.

Another assay addresses T3, chimpanzee PSMA, full length, on HEK293F cells (Pan troglodytes (chimpanzee)).
T3 construct: stably transfected HEK293F cells; also called chimp PSMA; chimp-PSMA HEK
T3 chain: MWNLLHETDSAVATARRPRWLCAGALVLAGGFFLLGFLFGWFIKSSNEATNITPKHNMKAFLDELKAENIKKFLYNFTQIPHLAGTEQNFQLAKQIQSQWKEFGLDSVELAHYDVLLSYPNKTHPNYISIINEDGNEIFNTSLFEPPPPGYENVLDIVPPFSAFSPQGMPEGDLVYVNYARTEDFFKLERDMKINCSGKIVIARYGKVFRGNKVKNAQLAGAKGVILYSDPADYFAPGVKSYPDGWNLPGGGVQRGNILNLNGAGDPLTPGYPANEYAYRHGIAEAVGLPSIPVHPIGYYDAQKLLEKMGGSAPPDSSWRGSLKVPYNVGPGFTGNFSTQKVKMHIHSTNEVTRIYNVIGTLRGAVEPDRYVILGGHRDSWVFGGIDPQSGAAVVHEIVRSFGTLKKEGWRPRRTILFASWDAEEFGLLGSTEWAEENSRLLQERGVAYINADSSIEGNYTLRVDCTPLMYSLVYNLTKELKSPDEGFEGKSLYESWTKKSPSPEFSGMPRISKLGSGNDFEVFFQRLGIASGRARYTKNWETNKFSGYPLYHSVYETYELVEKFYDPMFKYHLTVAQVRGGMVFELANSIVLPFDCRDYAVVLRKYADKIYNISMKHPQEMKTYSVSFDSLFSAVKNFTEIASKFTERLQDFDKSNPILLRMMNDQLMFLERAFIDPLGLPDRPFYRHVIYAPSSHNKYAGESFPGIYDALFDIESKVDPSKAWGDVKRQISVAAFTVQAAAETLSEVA
Description: flow cytometry, Fab supernatant, chimp PSMA HEK cells. The protocol:
as §1, with “Individual” for “A cell-based binding assay was designed to assess the binding capabilities of individual Fab-his fusions from E. coli supernatants to PSMA-expressing cells. Individual”
as §2
B4 returned a Geo-MFI of 231.
On the same count and under the same terms, the result for B5 reads 326; that for B6, 192.
Same read-out and setting: next, B7: 34.7; B8: 176; B9: 729.
On the same count and under the same terms, the result for B10 reads 18.6.
B11: the Geo-MFI was determined as 22.
The same measure, in the same setting: the result for B12 reads 180.
